Source: paper PMC9770967, “Native holdup (nHU) to measure binding affinities from cell extracts” (Science Advances, 2022)

B1: Microtubule-associated protein 4: full-length endogenous prey, gene MAP4 (protein, UniProt P27816 1-1152, looked up)
chain: MADLSLADALTEPSPDIEGEIKRDFIATLEAEAFDDVVGETVGKTDYIPLLDVDEKTGNSESKKKPCSETSQIEDTPSSKPTLLANGGHGVEGSDTTGSPTEFLEEKMAYQEYPNSQNWPEDTNFCFQPEQVVDPIQTDPFKMYHDDDLADLVFPSSATADTSIFAGQNDPLKDSYGMSPCNTAVVPQGWSVEALNSPHSESFVSPEAVAEPPQPTAVPLELAKEIEMASEERPPAQALEIMMGLKTTDMAPSKETEMALAKDMALATKTEVALAKDMESPTKLDVTLAKDMQPSMESDMALVKDMELPTEKEVALVKDVRWPTETDVSSAKNVVLPTETEVAPAKDVTLLKETERASPIKMDLAPSKDMGPPKENKKETERASPIKMDLAPSKDMGPPKENKIVPAKDLVLLSEIEVAQANDIISSTEISSAEKVALSSETEVALARDMTLPPETNVILTKDKALPLEAEVAPVKDMAQLPETEIAPAKDVAPSTVKEVGLLKDMSPLSETEMALGKDVTPPPETEVVLIKNVCLPPEMEVALTEDQVPALKTEAPLAKDGVLTLANNVTPAKDVPPLSETEATPVPIKDMEIAQTQKGISEDSHLESLQDVGQSAAPTFMISPETVTGTGKKCSLPAEEDSVLEKLGERKPCNSQPSELSSETSGIARPEEGRPVVSGTGNDITTPPNKELPPSPEKKTKPLATTQPAKTSTSKAKTQPTSLPKQPAPTTIGGLNKKPMSLASGLVPAAPPKRPAVASARPSILPSKDVKPKPIADAKAPEKRASPSKPASAPASRSGSKSTQTVAKTTTAAAVASTGPSSRSPSTLLPKKPTAIKTEGKPAEVKKMTAKSVPADLSRPKSTSTSSMKKTTTLSGTAPAAGVVPSRVKATPMPSRPSTTPFIDKKPTSAKPSSTTPRLSRLATNTSAPDLKNVRSKVGSTENIKHQPGGGRAKVEKKTEAAATTRKPESNAVTKTAGPIASAQKQPAGKVQIVSKKVSYSHIQSKCGSKDNIKHVPGGGNVQIQNKKVDISKVSSKCGSKANIKHKPGGGDVKIESQKLNFKEKAQAKVGSLDNVGHLPAGGAVKTEGGGSEAPLCPGPPAGEEPAISEAAPEAGAPTSASGLNGHPTLSGGGDQREAQTLDSQIQETSI
modifications: full-length
notes: full-length endogenous prey, gene MAP4
B2: ARHGEF6: Rho guanine nucleotide exchange factor 6 (protein, UniProt Q15052 1-776, looked up)
Rho guanine nucleotide …: MNPEEQIVTWLISLGVLESPKKTICDPEEFLKSSLKNGVVLCKLINRLMPGSVEKFCLDPQTEADCINNINDFLKGCATLQVEIFDPDDLYSGVNFSKVLSTLLAVNKATEDQLSERPCGRSSSLSAANTSQTNPQGAVSSTVSGLQRQSKTVEMTENGSHQLIVKARFNFKQTNEDELSVCKGDIIYVTRVEEGGWWEGTLNGRTGWFPSNYVREIKSSERPLSPKAVKGFETAPLTKNYYTVVLQNILDTEKEYAKELQSLLVTYLRPLQSNNNLSTVEVTSLLGNFEEVCTFQQTLCQALEECSKFPENQHKVGGCLLSLMPHFKSMYLAYCANHPSAVNVLTQHSDELEQFMENQGASSPGILILTTNLSKPFMRLEKYVTLLQELERHMEDTHPDHQDILKAIVAFKTLMGQCQDLRKRKQLELQILSEPIQAWEGEDIKNLGNVIFMSQVMVQYGACEEKEERYLMLFSNVLIMLSASPRMSGFIYQGKIPIAGTVVTRLDEIEGNDCTFEITGNTVERIVVHCNNNQDFQEWLEQLNRLIRGPASCSSLSKTSSSSCSAHSSFSSTGQPRGPLEPPQIIKPWSLSCLRPAPPLRPSAALGYKERMSYILKESSKSPKTMKKFLHKRKTERKPSEEEYVIRKSTAALEEDAQILKVIEAYCTSANFQQGHGSSTRKDSIPQVLLPEEEKLIIEETRSNGQTIMEEKSLVDTVYALKDEVRELKQENKRMKQCLEEELKSRRDLEKLVRRLLKQTDECIRGESSSKTSILP
B3: PTPRCAP: Protein tyrosine phosphatase receptor type C-associated protein (protein, UniProt Q14761 1-206, looked up)
Protein tyrosine phosphatase …: MALPCTLGLGMLLALPGALGSGGSAEDSVGSSSVTVVLLLLLLLLLATGLALAWRRLSRDSGGYYHPARLGAALWGRTRRLLWASPPGRWLQARAELGSTDNDLERQEDEQDTDYDHVADGGLQADPGEGEQQCGEASSPEQVPVRAEEARDSDTEGDLVLGSPGPASAGGSAEALLSDLHAFAGSAAWDDSARAAGGQGLHVTAL

How the values were obtained:
SNX27_PDZ [1] = test: nHU-MS, SNX27_PDZ bait, total Jurkat extracts, series 1; type: binding, human; conditions: Jurkat, series 1; for BI_HU / FC_HU (log2 fold change) / Ratio_HU: n = 6; for pKapp_significant_binders_HU: apparent, Eq. 2, significant binders (1 σ, P < 0.05)
Method: The empty His6-AviTag-MBP-TEV vector was used to produce biotinylated MBP for control experiments. Proteins were coexpressed with BirA biotin ligase (PET21a-BirA, Addgene, no. 20857) in Escherichia coli BL21(DE3) cells. At isopropyl-β-D-thiogalactopyranoside (IPTG) induction (1 mM IPTG at 18°C overnight), 50 μM biotin was added to the media. Harvested cells were lysed in a buffer containing 50 mM tris (pH 7.5), 150 to 300 mM NaCl, 50 μM biotin, 2 mM β-mercaptoethanol, cOmplete EDTA-free protease inhibitor cocktail (Roche, Basel, Switzerland), 1% Triton X-100, and trace amount of deoxyribonuclease, ribonuclease, and lysozyme. Lysates were frozen at −20°C before further purification steps. Lysates were sonicated and centrifuged for clarification. Expressed proteins were captured on in-house prepacked Ni-IDA (Protino Ni-IDA Resin, Macherey-Nagel, Duren, Germany) columns and were washed with at least 10 column volumes of cold wash buffer [50 mM tris (pH 7.5), 150 mM NaCl, and 2 mM β-mercaptoethanol] before elution with 250 mM imidazole. The Ni elution was collected directly on a preequilibrated amylose column (amylose high flow resin, New England Biolabs, Ipswich, MA). Amylose column was washed with 5 column volumes of cold wash buffer before fractionated elution in a buffer containing 25 mM Hepes (pH 7.5), 150 mM NaCl, 1 mM TCEP, 10% glycerol, 5 mM maltose, and cOmplete EDTA-free protease inhibitor cocktail. The concentration of proteins was determined by their ultraviolet absorption at 280 nm before aliquots were snap-frozen in liquid nitrogen and stored at −80°C.
For saturating streptavidin resin with biotinylated peptides or biotin, 50 μl of streptavidin resin was mixed with biotin or peptide at 40 to 60 μM concentration in 6 to 6.5 resin volume for 60 min. To saturate streptavidin resin with biotinylated proteins, 50 μl of streptavidin resin (Streptavidin Sepharose High Performance, Cytiva) was mixed with biotinylated MBP or MBP-PDZ at 40 to 50 μM concentration in 20× resin volume for 60 min. After saturation, resins were washed a single time [10 resin volume, holdup buffer: 50 mM tris (pH 7.5), 300 mM NaCl, and 1 mM TCEP, 0.22-μm filtered] and were depleted with biotin (10 resin volume, 10 min, holdup buffer supplemented with 100 μM biotin). Last, resins were washed two times (10 resin volume, holdup buffer).
For single-point nHU experiments carried out at ~10 μM bait concentration, 50 μl of saturated streptavidin resin was mixed with 200 μl of cell lysate (2 mg/ml). Titration experiments were carried out by mixing control and bait-saturated resin and keeping the total resin volume constant; e.g., ~5 μM bait concentration can be achieved by mixing 25 μl of bait-saturated streptavidin resin with 25 μl of control resin and 200 μl of cell lysate (2 mg/ml). Control and bait-saturated resins were prepared in larger amounts, and a serial dilution was prepared with these presaturated resins to achieve different resin ratios.
Unless specified elswhere, the nHU mixture was incubated at 4°C for 2 hours. After the incubation ended, the resin was separated from the supernatant by a brief centrifugation (15 s, 2000 g). Then, half of the supernatant was removed by pipetting without any delay to avoid any resin contamination; e.g., 100 μl of supernatant is collected if 200 μl of cell lysate was used as analyte. Alternatively, the supernatant can be centrifuged an additional time to clarify it further, removing any possible resin contamination. In principle, the separation of the supernatant should be as fast as possible since any delay can perturb the equilibrium. […] Alternatively, the resin can be separated from the supernatant using filter plates (e.g., various products of Millipore, Burlington, MA) or spin columns (e.g., Pierce spin cups—cellulose acetate filter from Thermo Fisher Scientific, Waltham, MA) to achieve faster separation. […]

SNX27_PDZ [2] = test: AP-MS control pull-down on leftover resin, SNX27_PDZ bait, total Jurkat extracts; type: binding, human; conditions: Jurkat, series 1; leftover resin; n = 6
Method: Leftover beads from nHU-MS experiments were washed three times immediately after the separation of the supernatant [10 resin volume in buffer containing 50 mM tris (pH 8.5), 150 mM NaCl, 1% Triton X-100, 10× cOmplete EDTA-free protease inhibitor cocktail, 2 mM EDTA, and 1 mM TCEP]. Then, the beads were washed two times [10 resin volume buffer containing 50 mM tris (pH 8.5), 150 mM NaCl, and 1 mM TCEP]. Last, captured protein was eluted from the resin in two steps, and the eluted fractions were pooled. For each elution, the beads were incubated for 30 min with three resin volume buffer containing 20 mM tris (pH 8.5), 100 mM NaCl, 500 μM TCEP, and 8 M urea. Between each step, the beads were separated by mild centrifugation, and the supernatant was removed by gentle pipetting.
The nHU samples were precipitated with trichloroacetic acid (TCA) 20% overnight at 4°C and centrifuged at 14,000 rpm for 10 min at 4°C. The protein pellets were washed twice with 1 ml of cold acetone and air-dried. The protein extracts were solubilized in 8 M urea, reduced with 5 mM TCEP for 30 min, and alkylated with 10 mM iodoacetamide for 30 min in the dark. Double digestion was performed at 37°C with 500 ng of endoproteinase Lys-C (Wako, Richmond, USA) for 4 hours, followed by fourfold dilution and an overnight digestion with 500 ng of trypsin (Promega, Charbonnieres les Bains, France). Peptide mixtures were then desalted on a C18 spin-column and dried on a speed vacuum.
Samples were analyzed using an Ultimate 3000 nano-RSLC coupled in line via a nano-electrospray ionization source, with an LTQ-Orbitrap ELITE mass spectrometer (Thermo Fisher Scientific, San Jose, CA) or with the Orbitrap Exploris 480 mass spectrometer (Thermo Fisher Scientific, Bremen, Germany) equipped with a high field asymmetric ion mobility spectrometry (FAIMS) module. Peptide mixtures were injected in 0.1% trifluoroacetic acid on a C18 Acclaim PepMap100 trap column [75 μm inner diameter (ID) × 2 cm, 3 μm, 100 Å, Thermo Fisher Scientific] for 3 min at 5 μl/min with 2% acetonitrile (ACN) and 0.1% formic acid (FA) in H2O and then separated on a C18 Acclaim PepMap100 nano-column (75 μm ID × 50 cm, 2.6 μm, 150 Å, Thermo Fisher Scientific) at 300 nl/min and 40°C with a 90-min linear gradient from 5 to 30% buffer B (A: 0.1% FA in H2O/B: 80% ACN, 0.1% FA in H2O) and regeneration at 5% B. Spray voltage was set to 2.1 kV and heated capillary temperature was set to 280°C.
For the Orbitrap Elite, the mass spectrometer was operated in positive ionization mode in data-dependent mode with survey scans from mass/charge ratio (m/z) 350 to 1500 acquired in the Orbitrap at a resolution of 120,000 at m/z 400. The 20 most intense peaks from survey scans were selected for further fragmentation in the linear ion trap with an isolation window of 2.0 Da and were fragmented by collision-induced dissociation (CID) with a normalized collision energy of 35% (TOP 20 CID method). Unassigned and single-charged states were excluded from fragmentation. The ion target value for the survey scans (in the Orbitrap) and the MS2 mode (in the linear ion trap) were set to 1E6 and 5E3, respectively, and the maximum injection time was set to 100 ms for both scan modes. Dynamic exclusion was set to 20 s after one repeat count with mass width at ±10 parts per million (ppm).
Proteins were identified by database search using SequestHT (Thermo Fisher Scientific) with Proteome Discoverer 2.4 software (PD2.4, Thermo Fisher Scientific) on the human FASTA database downloaded from UniProt (reviewed, release 2021_06_03, 20380 entries, https://uniprot.org/, complemented with sequences of likely contaminants, such as MBP, streptavidin, or trypsin). Precursor and fragment mass tolerances were set at 7 ppm and 0.6 Da, respectively, and up to two missed cleavages were allowed. […]

| Molecule | BI_HU (SNX27_PDZ [1]) | FC_HU (log2 fold change) (SNX27_PDZ [1]) | Ratio_HU (SNX27_PDZ [1]) | pKapp_significant_binders_HU (SNX27_PDZ [1]) | FC_AP (log2 fold change) (SNX27_PDZ [2]) | Ratio_AP (SNX27_PDZ [2]) |
| --- | --- | --- | --- | --- | --- | --- |
| B1 | 0.2772 | -0.4683 | 0.7228 | 4.5849 | 7.799 | 222.732 |
| B2 | 0.3284 | -0.5743 | 0.6716 | 4.691 | 5.099 | 34.2811 |
| B3 | 0.3458 | -0.6123 | 0.6542 | 4.725 | 0.5179 | 1.432 |
